The results in this text go back to article PMC3616705 (Nucleic Acids Research, 2013).

Series [1] deals with Los1p·Gsp1p export complex (GST-Los1p together with GST-Gsp1p on glutathione resin) (yeast, UniProt P33418 1-1100; P32835 1-219). The series is described as follows: pull-down.
The series “AUC” concerns the molecule itself. The series is described as follows: AUC.

B1: wild-type, full-length Cex1p (cytoplasmic export protein), N-terminal His tag (natural protein, Saccharomyces cerevisiae, UniProt Q12453 1-761, looked up)
chain: MNFSSIFKSISNFQFPYTIEETAITETALWQCFDGTRKADSLPVTVFKAKRSPENESLILNAVHKSKILKIPGLCTVLETFDSDPQSTFIVTERVVPFPWDNLGSLSQNKFGVELGISQLLATLGFLKNFVLGTLSKDSVFINIKGEWVLFGLELCSSKEGLSAFEFASRARSYYNIIGSQLPCEDPNTIDSMGLGLLIKSLMAPSCLPKDWIVNVNMISDGKITIENFRKRLENTETWRSNPLINFYQELRELHIKDPQGKLVVMSNLENLYLESREIFRNLTPGMIENFIIPELCEIIKLLMTQSISSAASPIGMNFNASHKLVPFLAIVLDLTSETNTFPVGFNDLITQSFKLPDRQVRFLLLIYLPKLIGPLSKSEISSRIYPHFIQGLTDSDATLRLQTLKTIPCIVSCLTERQLNNELLRFLAKTQVDSDVEIRTWTVIIISKISTILSTSVGNRSNILATAFTKSLKDPQVKPRLAALYGLEKSIELFDVNTIANKILTVIAPGLLDKSPIVRGRAKILFEEYLEKLEKEAQLIQTNDSTADSEDVKDIDFENYGCDEEDMNKEDNLLAAQFLNNLRLNSPSATTPSNITESEIDSAQDGSGWDDLSDTDGFITNGTTESFDETTNPVTTASTPKLFGKPIKINKSWNDELNDDGWIQDESGPSKVPQKHTRPQNSTLAKSIAPSSRLSIKKKKTTILAPRNIASNSTVTTKSSLSNKTARSKPISSIRGSVTKKGNVDGWDDDGDSDSWDTNW
As for B1, the binding result in series [1] was “binds”. The stoichiometry N – broadly, a count of units in the complex or per binding partner – in “AUC” was 2.

B2: Cex1pΔC-SER (residues 9-564, E535A/K536A/E537A) with N-terminal His tag, as used in the pull-down (domain or fragment, Saccharomyces cerevisiae, UniProt Q12453 9-564, looked up)
chain: SISNFQFPYTIEETAITETALWQCFDGTRKADSLPVTVFKAKRSPENESLILNAVHKSKILKIPGLCTVLETFDSDPQSTFIVTERVVPFPWDNLGSLSQNKFGVELGISQLLATLGFLKNFVLGTLSKDSVFINIKGEWVLFGLELCSSKEGLSAFEFASRARSYYNIIGSQLPCEDPNTIDSMGLGLLIKSLMAPSCLPKDWIVNVNMISDGKITIENFRKRLENTETWRSNPLINFYQELRELHIKDPQGKLVVMSNLENLYLESREIFRNLTPGMIENFIIPELCEIIKLLMTQSISSAASPIGMNFNASHKLVPFLAIVLDLTSETNTFPVGFNDLITQSFKLPDRQVRFLLLIYLPKLIGPLSKSEISSRIYPHFIQGLTDSDATLRLQTLKTIPCIVSCLTERQLNNELLRFLAKTQVDSDVEIRTWTVIIISKISTILSTSVGNRSNILATAFTKSLKDPQVKPRLAALYGLEKSIELFDVNTIANKILTVIAPGLLDKSPIVRGRAKILFEEYLEKLAAAAQLIQTNDSTADSEDVKDIDFENYGCD
For B2, in series [1], the binding result is given as “binds”.

B3: Cex1pΔC-SER (residues 9-564, E535A/K536A/E537A), His tag removed (domain or fragment, Saccharomyces cerevisiae, UniProt Q12453 9-564, looked up)
chain: B2 chain
For B3, the “stoichiometry N” value in the series “AUC” is 2.

B4: Cex1p9-358 (N-terminal kinase-like domain of Cex1p), N-terminal His tag (domain or fragment, Saccharomyces cerevisiae, UniProt Q12453 9-358, looked up)
chain: SISNFQFPYTIEETAITETALWQCFDGTRKADSLPVTVFKAKRSPENESLILNAVHKSKILKIPGLCTVLETFDSDPQSTFIVTERVVPFPWDNLGSLSQNKFGVELGISQLLATLGFLKNFVLGTLSKDSVFINIKGEWVLFGLELCSSKEGLSAFEFASRARSYYNIIGSQLPCEDPNTIDSMGLGLLIKSLMAPSCLPKDWIVNVNMISDGKITIENFRKRLENTETWRSNPLINFYQELRELHIKDPQGKLVVMSNLENLYLESREIFRNLTPGMIENFIIPELCEIIKLLMTQSISSAASPIGMNFNASHKLVPFLAIVLDLTSETNTFPVGFNDLITQSFKLPD
Consider B4, for which, in series [1], the binding result is recorded as “binds”. Further, in “AUC”, the “stoichiometry N” value stood at 2.
